{"source": "patent US20220348635A1", "about": "“COMPOSITIONS AND METHODS FOR NEUROLOGICAL DISEASES” (Coda Biotherapeutics, Inc., priority 2019, published 2022)", "key": {"[1]": {"experiment": "Sensitivity of parental chimera versus wild type α7-nAChR, Facinicline/RG3487", "source_text": "(§1) To generate LGICs that conduct anion current following exposure to non-native small molecule agonists of the human α7-nAChR, chimeric ligand gated ion channel (LGIC) receptors comprising the ligand binding domain derived from the human α7 nicotinic acetylcholine receptor (α7-nAChR) and the chloride-conducting ion pore domain derived from the human GlyR1α were genetically engineered."}, "[2]": {"experiment": "Sensitivity of parental chimera versus wild type α7-nAChR, AZD-0328", "source_text": "as §1"}, "[3]": {"experiment": "Sensitivity of parental chimera versus wild type α7-nAChR, ABT-126", "source_text": "as §1"}, "[4]": {"experiment": "Sensitivity of parental chimera versus wild type α7-nAChR, TC-6987", "source_text": "as §1"}, "[5]": {"experiment": "Sensitivity of parental chimera versus wild type α7-nAChR, acetylcholine", "source_text": "as §1"}, "[6]": {"experiment": "Sensitivity of parental chimera versus wild type α7-nAChR, nicotine", "source_text": "as §1"}}}
{"molecule": "SEQ ID NO: 33: parental CHRNA7/GLRA1 chimera: α7-nAChR ligand binding domain with GlyRα1 Cys-loop, fused to GlyRα1 ion pore domain (protein, synthetic sequence of chimeric LGIC) MRCSPGGVWLALAASLLHVSLQGEFQRKLYKELVKNYNPLERPVANDSQPLTVYFSLSLLQIMDVDEKNQVLTTNIWLQMSWTDHYLQWNVSEYPGVKTVRFPDGQIWKPDILLYNSADERFDATFHTNVLVNSSGHCQYLPPGIFKSSCPMDLKNFPMDVQTCKLKFGSWSYGGWSLDLQMQEADISGYIPNGEWDLVGIPGKRSERFYECCKEPYPDVTFTVTMRRRMGYYLIQMYIPSLLIVILSWISFWINMDAAPARVGLGITTVLTMTTQSSGSRASLPKVSYVKAIDIWMAVCLLFVFSALLEYAAVNFVSRQHKELLRFRRKRRHHKSPMLNLFQEDEAGEGRFNFSAYGMGPACLQAKDGISVKGANNSNTTNPPPAPSKSPEEMRKLFIQRAKKIDKISRIGFPMAFLIFNMFYWIIYKIVRREDVHNQ", "values": [{"measurement": "fold more sensitive to Facinicline/RG3487 than wild type", "setting": "[1]", "value": "~10", "unit": "fold"}, {"measurement": "fold more sensitive to AZD-0328 than wild type", "setting": "[2]", "value": "approximately 3 fold"}, {"measurement": "sensitivity to ABT-126 compared to wild type α7-nAChR", "setting": "[3]", "value": "approximately as sensitive"}, {"measurement": "sensitivity to TC-6987 compared to wild type α7-nAChR", "setting": "[4]", "value": "approximately as sensitive"}, {"measurement": "type of agonist activity of TC-6987 on the receptor", "setting": "[4]; similar to wild type", "value": "partial agonist activity"}, {"measurement": "sensitivity to acetylcholine compared to wild type α7-nAChR", "setting": "[5]", "value": "approximately as sensitive"}, {"measurement": "fold less sensitive to nicotine than wild type", "setting": "[6]", "value": "~2", "unit": "fold"}]}
